{"source": "patent US20260216293A1", "about": "“METHODS AND AGENTS FOR TREATING RESPIRATORY INFLAMMATION AND ASSOCIATED DISEASES AND CONDITIONS” (AROA BIOSURGERY LIMITED, priority 2023, published 2026)", "molecules": {"B1": {"name": "MD31-170: recombinant MayDay polypeptide comprising amino acids 31-170 of ovine decorin, expressed in BL21 E. coli (protein)", "chain": "DEASGIGPEERFHEVPELEPMGPVCPFRCQCHLRVVQCSDLGLEKVPKDLPPDTALLDLQNNKITEIKDGDFKNLKNLHTLILINNKISKISPGAFAPLVKLERLYLSKNQLKELPEKMPKTLQELRVHENEITKVRKSV", "modifications": "Ovis aries", "notes": "recombinant MayDay polypeptide comprising amino acids 31-170 of ovine decorin, expressed in BL21 E. coli"}}, "format_in_all_cases": "in vivo, C57BL/6 mice", "key": {"[1]": {"system": "murine model of respiratory inflammation (IT LPS)", "test": "Lung histological pathology (H&E, lung injury score) in LPS-induced murine model of respiratory inflammation", "method": "(§1) At −1 h (1 hr before the lipopolysaccharide (LPS) administration), animals were treated with: Vehicle for groups 1 and 2 via an intravenous route (200 μL); dexamethasone (5 mg/kg) as a positive control (group 3) via an intraperitoneal (IP) route (5 mg/kg, 200 μL); MD31-170 for groups 4-6 via an intravenous (IV) route at the appropriate dosage (200 μL).\n(§2) After administration of anesthesia by sodium pentobarbital, the mice underwent intra-tracheal (IT) instillation of a nonlethal dose of LPS from E. coli 0111: B4 (Sigma-Aldrich, St. Louis, MO, USA) at 5 mg/kg dissolved in 100 μl PBS to induce acute respiratory inflammation. LPS (Sigma L4391, O111: B4) lyophilized powder was resuspended in 0.9% saline to give aliquots at 2.5 mg/ml which were stored at […]. At time=0 h, animals in vehicle group 1 were administered PBS (40 μL) via an IT route and animals in groups 2-6 were administered LPS (40 μL) at 5 mg/kg by an IT route to induce acute respiratory inflammation. Termination occurred at either 6 h, 24 h or 72 h with each animal weighed at the endpoint.\nThe whole lung was fixed in 10% Neutral Buffered Formalin (NBF) and embedded in paraffin and then cut into 4 μm sections. Then, the sections were deparaffinized and stained with hematoxylin and eosin (H&E) for histological evaluation.\nThe severity of lung tissue inflammation was evaluated using lung injury score as follows. The severity of lung damage was scored based on the following histologic features: alveolar congestion, hemorrhage, infiltration of neutrophils in airspace or vessel wall, and thickness of alveolar wall/hyaline membrane formation. Each item was graded on a five-point scale from 0 to 4:0 (minimal damage), 1 (mild damage), 2 (moderate damage), 3 (severe damage), and 4 (maximal damage)."}, "[2]": {"system": "murine model of respiratory inflammation (IT LPS)", "test": "BALF cytokine analysis (MSD) in LPS-induced murine model of respiratory inflammation", "settings": "IV, 1 h before LPS", "method": "All animal experiments were performed in accordance with the guidelines of decreasing the amount of suffering, pain, and discomfort of the experimental animals. A total of 54 male C57BL/6 mice were used in this study. Mice between the ages of 7 to 8 weeks were obtained from IACUC approved laboratory animal supplier. Animals were acclimated for at least 4 days prior to the study. Animals were housed in a temperature-controlled room with a 12-hour light/dark cycle, with ad libitum access to water and irradiated laboratory chow throughout the study. Animals were individually identified by ear tags. Animals were weighed one day prior to the start of the study and stratified into 6 groups of 9 animals so that each group has roughly the same average weight. Animals were monitored for any form of discomfort as well as for clinical symptoms of distress or ambulatory discomfort.\nA total of 54 male C57BL/6 mice (7 to 8 weeks old, body weight […]) were used in this study, as set out below in Table 2.\nas §1, with “μL). […]” for “μL).”\n(§3) Lungs were harvested from each animal and weighed. […] The cell pellet was resuspended in 100 μL PBS and the number of total cells was counted using Cell Counter model R1 (Olympus, Tokyo, Japan). […] Neutrophil counts were quantified using a light microscope by counting a total of 200 cells/slide at 40× magnification.\nBALF cytokines concentrations were evaluated from an aliquot of BALF using the 29-plex cytokine MSD Platform (Cat. K152167D) according to manufacturer's instruction."}, "[3]": {"system": "murine model of respiratory inflammation (IT LPS)", "test": "BALF neutrophil count in LPS-induced murine model of respiratory inflammation", "settings": "all assessed timepoints (6, 24, 72 hours); FIG. 5", "method": "as §1, §2, §3"}, "[4]": {"system": "murine model of respiratory inflammation (IT LPS)", "test": "MPO levels of BALF in LPS-induced murine model of respiratory inflammation", "settings": "groups 4, 5 and 6 (2.5, 25, 100 μg/animal IV) at 6 hours and 24 hours; FIG. 6", "method": "as §1\nAfter administration of anesthesia by sodium pentobarbital, the mice underwent intra-tracheal (IT) instillation of a nonlethal dose of LPS from E. coli 0111: B4 (Sigma-Aldrich, St. Louis, MO, USA) at 5 mg/kg dissolved in 100 μl PBS to induce acute respiratory inflammation. LPS (Sigma L4391, O111: B4) lyophilized powder was resuspended in 0.9% saline to give aliquots at 2.5 mg/ml which were stored at 20° C. […]\nas §3\nMPO levels were evaluated from an aliquot of BALF in an MPO assay using Abcam kit (Cat. Ab155458) according to manufacturer's instructions."}, "[5]": {"settings": "groups 4, 5 and 6 vs dexamethasone 5 mg/kg IP, FIGS. 7-9"}}}
{"molecule": "B1", "values": [{"measurement": "neutrophil score, inflammation score and interstitial inflammation score: dose dependence", "setting": "[1]; 6, 24 and 72 hours post LPS-induction", "value": "dose dependent changes"}, {"measurement": "neutrophil score (histology)", "setting": "[1]; 24 hours, group 6 (100 μg/mouse) compared to LPS control (group 2), FIG. 7B", "value": "statistically significant decreases"}, {"measurement": "inflammation score (inflammation-neutrophilic alveolar score, histology)", "setting": "[1]; 24 hours, group 6 (100 μg/mouse) compared to LPS control (group 2), FIG. 8B", "value": "statistically significant decreases"}, {"measurement": "interstitial inflammation score (histology)", "setting": "[1]; 24 hours, group 6 (100 μg/mouse) compared to LPS control (group 2), FIG. 9B", "value": "statistically significant decreases"}, {"measurement": "lung injury score", "setting": "[1]; groups 4, 5 and 6 (2.5, 25, 100 μg/animal IV)", "value": "consistently and substantially decreased"}, {"measurement": "pathological changes in the lung (alveolar wall not intact, interstitial edema, inflammatory cell infiltration)", "setting": "[1]; groups 4, 5 and 6 (2.5, 25, 100 μg/animal IV), H&E", "value": "alleviated"}, {"measurement": "lung damage relative to dexamethasone treated animals (group 3)", "setting": "[1]; [5]", "value": "comparable or less than"}, {"measurement": "positive effect on lung pathology relative to positive control dexamethasone (group 3)", "setting": "[1]; [5]", "value": "comparable to or better than"}, {"measurement": "protein levels of TNF-α in BALF", "setting": "[2]; 6 hours post-administration, compared to LPS control group (group 2), FIG. 2A", "value": "significantly decreased"}, {"measurement": "protein levels of IFN-γ in BALF", "setting": "[2]; 24 hours post-administration, compared with LPS group (group 2), FIG. 3B", "value": "significantly decreased"}, {"measurement": "protein levels of IL-6 in BALF", "setting": "[2]; 24 hours post-administration, compared with LPS group (group 2), FIG. 4B", "value": "significantly decreased"}, {"measurement": "number of neutrophils in BALF", "setting": "[3]", "value": "decreased significantly"}, {"measurement": "myeloperoxidase (MPO) in BALF", "setting": "[4]", "value": "significantly reduced"}]}
